For this assay, the target named is P3Z chimeric PD-1 receptor (human). The assay is described as follows: cell-based or functional assay.

The source of these data is US8735553 (BEIGENE SWITZERLAND, dated 2014).

Chain of P3Z chimeric PD-1 receptor (human) (chain, as listed by the source mutant limits assumed): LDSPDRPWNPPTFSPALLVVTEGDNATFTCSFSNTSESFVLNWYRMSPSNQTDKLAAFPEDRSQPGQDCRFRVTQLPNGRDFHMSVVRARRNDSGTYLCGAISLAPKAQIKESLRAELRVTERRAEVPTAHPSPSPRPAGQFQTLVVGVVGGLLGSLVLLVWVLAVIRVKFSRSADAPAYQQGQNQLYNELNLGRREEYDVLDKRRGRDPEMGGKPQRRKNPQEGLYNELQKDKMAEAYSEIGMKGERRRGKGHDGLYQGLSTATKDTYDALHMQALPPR

B1: Fab hu317-1_Vh / hu317-1_Vκ (Fab, V domains shown)
VH: QVQLQESGPGLVKPSETLSLTCTVSGFSLTSYGVHWIRQPPGKGLEWLGVIWAGGSTNYNPSLKSRLTISKDNSKSQVSLKMSSVTAADTAVYYCARAYGNYWYIDVWGQGTTVTVSS
VL: DIVMTQSPDSLAVSLGERATINCKASQSVSNDVAWYQQKPGQPPKLLINYAFHRFTGVPDRFSGSGYGTDFTLTISSLQAEDVAVYYCHQAYSSPYTFGGGTKLEIK
As for B1, the “IL-2 release in HuT78/P3Z, EC50” value was 0.3 mg/L and the “IL-2 release in HuT78/P3Z, Max inhibition” value turned out to be 98.8%.

B2: Fab hu317-2_N73T / hu317-1_Vκ (Fab, V domains shown)
VH: QVQLQESGPGLVKPSETLSLTCTVSGFSLTSYGVHWIRQPPGKGLEWLGVIWAGGSTNYNPSLKSRLTISKDTSKSQVSLKMSSVTAADTAVYYCARAYGNYWYIDVWGQGTTVTVSS
VL: DIVMTQSPDSLAVSLGERATINCKASQSVSNDVAWYQQKPGQPPKLLINYAFHRFTGVPDRFSGSGYGTDFTLTISSLQAEDVAVYYCHQAYSSPYTFGGGTKLEIK
For B2, the “IL-2 release in HuT78/P3Z, EC50” value was 0.31 mg/L and the “IL-2 release in HuT78/P3Z, Max inhibition” value was found to be 98.3%.

B3: Fab hu317-2_L48I / hu317-1_Vκ (Fab, V domains shown)
VH: QVQLQESGPGLVKPSETLSLTCTVSGFSLTSYGVHWIRQPPGKGLEWIGVIWAGGSTNYNPSLKSRLTISKDNSKSQVSLKMSSVTAADTAVYYCARAYGNYWYIDVWGQGTTVTVSS
VL: DIVMTQSPDSLAVSLGERATINCKASQSVSNDVAWYQQKPGQPPKLLINYAFHRFTGVPDRFSGSGYGTDFTLTISSLQAEDVAVYYCHQAYSSPYTFGGGTKLEIK
Consider B3, for which the “IL-2 release in HuT78/P3Z, EC50” value came out at 0.37 mg/L and the “IL-2 release in HuT78/P3Z, Max inhibition” value is 98.5%.

B4: Fab hu317-2_M82L / hu317-1_Vκ (Fab, V domains shown)
VH: QVQLQESGPGLVKPSETLSLTCTVSGFSLTSYGVHWIRQPPGKGLEWLGVIWAGGSTNYNPSLKSRLTISKDNSKSQVSLKLSSVTAADTAVYYCARAYGNYWYIDVWGQGTTVTVSS
VL: DIVMTQSPDSLAVSLGERATINCKASQSVSNDVAWYQQKPGQPPKLLINYAFHRFTGVPDRFSGSGYGTDFTLTISSLQAEDVAVYYCHQAYSSPYTFGGGTKLEIK
Regarding B4, the “IL-2 release in HuT78/P3Z, EC50” value was determined as 0.27 mg/L and the “IL-2 release in HuT78/P3Z, Max inhibition” value is 98.5%.

B5: Fab hu317-2_L67V / hu317-1_Vκ (Fab, V domains shown)
VH: QVQLQESGPGLVKPSETLSLTCTVSGFSLTSYGVHWIRQPPGKGLEWLGVIWAGGSTNYNPSLKSRVTISKDNSKSQVSLKMSSVTAADTAVYYCARAYGNYWYIDVWGQGTTVTVSS
VL: DIVMTQSPDSLAVSLGERATINCKASQSVSNDVAWYQQKPGQPPKLLINYAFHRFTGVPDRFSGSGYGTDFTLTISSLQAEDVAVYYCHQAYSSPYTFGGGTKLEIK
Consider B5, for which the “IL-2 release in HuT78/P3Z, EC50” value turned out to be 0.3 mg/L and the “IL-2 release in HuT78/P3Z, Max inhibition” value amounted to 98.6%.

B6: Fab hu317-1_Vh / HU317-2_G100Q (Fab, V domains shown)
VH: QVQLQESGPGLVKPSETLSLTCTVSGFSLTSYGVHWIRQPPGKGLEWLGVIWAGGSTNYNPSLKSRLTISKDNSKSQVSLKMSSVTAADTAVYYCARAYGNYWYIDVWGQGTTVTVSS
VL: DIVMTQSPDSLAVSLGERATINCKASQSVSNDVAWYQQKPGQPPKLLINYAFHRFTGVPDRFSGSGYGTDFTLTISSLQAEDVAVYYCHQAYSSPYTFGQGTKLEIK
As to B6, the “IL-2 release in HuT78/P3Z, EC50” value is 0.27 mg/L and the “IL-2 release in HuT78/P3Z, Max inhibition” value is 98.9%.

B7: Fab hu317-2_K71V / hu317-1_Vκ (Fab, V domains shown)
VH: QVQLQESGPGLVKPSETLSLTCTVSGFSLTSYGVHWIRQPPGKGLEWLGVIWAGGSTNYNPSLKSRLTISVDNSKSQVSLKMSSVTAADTAVYYCARAYGNYWYIDVWGQGTTVTVSS
VL: DIVMTQSPDSLAVSLGERATINCKASQSVSNDVAWYQQKPGQPPKLLINYAFHRFTGVPDRFSGSGYGTDFTLTISSLQAEDVAVYYCHQAYSSPYTFGGGTKLEIK
Take B7: the “IL-2 release in HuT78/P3Z, EC50” value was 0.48 mg/L and the “IL-2 release in HuT78/P3Z, Max inhibition” value came out at 96.5%.
